{"source": "paper PMC5379070", "assay_in_all_cases": "native gel or EMSA; blue-native PAGE of the trimer-size SEC fractions (Superdex 200 Increase, TBS) after antibody affinity purification", "key": {"[1]": {"target": "327c SOSIP.664 trimer (HIV-1 isolate 327c (subtype C))"}, "[2]": {"target": "B41 SOSIP.664 trimer (HIV-1 isolate B41 (subtype B))"}, "[3]": {"target": "CRF02_AG_250 SOSIP.664 trimer (HIV-1 isolate CRF02_AG_250 (subtype AG))"}, "[4]": {"target": "SIV trimer SIVcpzMT145 SOSIP.664 (simian immunodeficiency virus SIVcpzMT145)"}}, "data": [{"substance": "327c SOSIP.664 trimer (complex)", "values": [{"measurement": "stoichiometry N", "setting": "[1]", "result": 3}]}, {"substance": "B41 SOSIP.664 trimer (complex)", "values": [{"measurement": "stoichiometry N", "setting": "[2]", "result": 3}]}, {"substance": "CRF02_AG_250 SOSIP.664 trimer (complex)", "values": [{"measurement": "stoichiometry N", "setting": "[3]", "result": 3}]}, {"substance": "SIV trimer SIVcpzMT145 SOSIP.664 (complex)", "values": [{"measurement": "stoichiometry N", "setting": "[4]", "result": 3}]}]}
